Residue numbers refer to the chain shown, from its start. Names may count otherwise.
T1: S463P ERα ligand-binding domain (LBD)
T1 chain: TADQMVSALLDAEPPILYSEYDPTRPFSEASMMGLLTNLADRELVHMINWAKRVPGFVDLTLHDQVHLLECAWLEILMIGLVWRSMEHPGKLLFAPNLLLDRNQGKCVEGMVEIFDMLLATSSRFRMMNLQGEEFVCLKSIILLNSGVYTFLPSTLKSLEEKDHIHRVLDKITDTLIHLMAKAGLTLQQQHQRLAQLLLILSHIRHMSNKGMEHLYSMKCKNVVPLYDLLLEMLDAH

B1: WT ERα ligand-binding domain (LBD) S463P (protein)
chain: T1 chain
B2: HA-tagged ERα S463P (receptor, UniProt P03372 1-595, looked up)
chain: MTMTLHTKASGMALLHQIQGNELEPLNRPQLKIPLERPLGEVYLDSSKPAVYNYPEGAAYEFNAAAAANAQVYGQTGLPYGPGSEAAAFGSNGLGGFPPLNSVSPSPLMLLHPPPQLSPFLQPHGQQVPYYLENEPSGYTVREAGPPAFYRPNSDNRRQGGRERLASTNDKGSMAMESAKETRYCAVCNDYASGYHYGVWSCEGCKAFFKRSIQGHNDYMCPATNQCTIDKNRRKSCQACRLRKCYEVGMMKGGIRKDRRGGRMLKHKRQRDDGEGRGEVGSAGDMRAANLWPSPLMIKRSKKNSLALSLTADQMVSALLDAEPPILYSEYDPTRPFSEASMMGLLTNLADRELVHMINWAKRVPGFVDLTLHDQVHLLECAWLEILMIGLVWRSMEHPGKLLFAPNLLLDRNQGKCVEGMVEIFDMLLATSSRFRMMNLQGEEFVCLKSIILLNSGVYTFLPSTLKSLEEKDHIHRVLDKITDTLIHLMAKAGLTLQQQHQRLAQLLLILSHIRHMSNKGMEHLYSMKCKNVVPLYDLLLEMLDAHRLHAPTSRGGASVEETDQSHLATAGSTSSHSLQKYYITGEAEGFPATV
B3: HA-ERα A430K/S463P double mutant (receptor, UniProt P03372 1-595, looked up)
chain: B2 chain with A430K

Experiments:
[1] = target: S463P ERα ligand-binding domain (LBD); assay: FRET or BRET; time-resolved FRET of dimer exchange: 2 nM ER-LBD labelled at C417 (biotin, streptavidin-terbium) mixed with 10 nM ER-LBD labelled at C530 (fluorescein); apo or exposed to 1 μM E2 for 30 minutes before mixing; signal followed with time
[2] = target: T1, S463P ERα ligand-binding domain (LBD); assay: tr-FRET dimer exchange; details: chain shown with the change
[3] = target: the molecule itself; assay: cell-based or functional assay

| Molecule | fold slower dissociation of dimers into monomers against WT ER, absence of E2 [1] | other: t1/2 of dimer exchange ([2]; apo (no E2), parent: 7) | other: t1/2 of dimer exchange ([2]; protein exposed to 1 μM E2 for 30 minutes before dimer exchange, parent: 101) | estrogen-independent expression of GREB1 (RT-qPCR, fold change relative to WT), SKBR3 cells [3] | estrogen-independent expression of PGR (RT-qPCR, fold change relative to WT), SKBR3 cells [3] |
| --- | --- | --- | --- | --- | --- |
| S463P ERα ligand-binding domain (LBD) (domain or fragment) | 7.6 times |  |  |  |  |
| B1 |  | 0.883 h | 3.17 h |  |  |
| B2 |  |  |  | 2.9 fold | 7.1 fold |
| B3 |  |  |  | 0.4 fold | 0.2 fold |
